In EP4714971A1 (Shanghai Hansoh Biomedical Co., Ltd., dated 2024):
Like-named read-outs stand apart in the source and are kept apart here.

Tests used:
[1] = molecular target: T1, human SEZ6 expressed on stably transfected CHO-K1 cells (human, UniProt Q53EL9 20-994); test: flow cytometry on CHO-K1 cells expressing human SEZ6
T1 construct: also called CHO-SEZ6; hSEZ6
T1 sequence: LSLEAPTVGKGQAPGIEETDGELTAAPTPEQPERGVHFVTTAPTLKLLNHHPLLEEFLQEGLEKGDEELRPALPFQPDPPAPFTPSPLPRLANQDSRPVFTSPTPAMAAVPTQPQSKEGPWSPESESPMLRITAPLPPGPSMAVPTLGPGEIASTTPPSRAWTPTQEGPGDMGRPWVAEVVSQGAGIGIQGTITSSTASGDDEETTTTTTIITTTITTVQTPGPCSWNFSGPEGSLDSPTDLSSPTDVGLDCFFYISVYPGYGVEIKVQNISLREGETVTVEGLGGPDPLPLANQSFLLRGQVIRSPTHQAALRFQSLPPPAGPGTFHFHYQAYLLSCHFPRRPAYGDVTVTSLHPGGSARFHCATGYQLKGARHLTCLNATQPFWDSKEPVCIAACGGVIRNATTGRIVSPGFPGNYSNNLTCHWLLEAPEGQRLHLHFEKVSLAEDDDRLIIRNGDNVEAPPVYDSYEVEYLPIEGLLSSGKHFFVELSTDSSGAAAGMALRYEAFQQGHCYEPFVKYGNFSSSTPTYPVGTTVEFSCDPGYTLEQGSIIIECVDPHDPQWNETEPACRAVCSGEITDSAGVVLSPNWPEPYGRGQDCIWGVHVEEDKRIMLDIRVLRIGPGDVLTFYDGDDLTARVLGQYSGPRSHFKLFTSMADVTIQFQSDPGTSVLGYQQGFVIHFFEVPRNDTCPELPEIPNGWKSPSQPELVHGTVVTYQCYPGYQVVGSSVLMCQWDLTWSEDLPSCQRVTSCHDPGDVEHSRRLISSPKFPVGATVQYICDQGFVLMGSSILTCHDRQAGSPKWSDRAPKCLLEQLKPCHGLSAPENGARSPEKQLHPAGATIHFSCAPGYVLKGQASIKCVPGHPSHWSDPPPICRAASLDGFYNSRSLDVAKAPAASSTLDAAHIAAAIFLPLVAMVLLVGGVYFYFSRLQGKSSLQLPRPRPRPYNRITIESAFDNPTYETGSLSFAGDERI

[2] = molecular target: T1, human SEZ6 expressed on stably …; test: as above; remark: listed apart in the source
SEZ6L-Fc protein = molecular target: T2, SEZ6L-Fc protein (human, UniProt Q9BYH1 29-958, limits assumed); test: ELISA, coated Fc fusion protein at 1 ug/mL
T2 construct: The construct is not described beyond its name; also called SEZ6L protein; Human SEZ6L1; not shown: Fc
T2 sequence (looked up): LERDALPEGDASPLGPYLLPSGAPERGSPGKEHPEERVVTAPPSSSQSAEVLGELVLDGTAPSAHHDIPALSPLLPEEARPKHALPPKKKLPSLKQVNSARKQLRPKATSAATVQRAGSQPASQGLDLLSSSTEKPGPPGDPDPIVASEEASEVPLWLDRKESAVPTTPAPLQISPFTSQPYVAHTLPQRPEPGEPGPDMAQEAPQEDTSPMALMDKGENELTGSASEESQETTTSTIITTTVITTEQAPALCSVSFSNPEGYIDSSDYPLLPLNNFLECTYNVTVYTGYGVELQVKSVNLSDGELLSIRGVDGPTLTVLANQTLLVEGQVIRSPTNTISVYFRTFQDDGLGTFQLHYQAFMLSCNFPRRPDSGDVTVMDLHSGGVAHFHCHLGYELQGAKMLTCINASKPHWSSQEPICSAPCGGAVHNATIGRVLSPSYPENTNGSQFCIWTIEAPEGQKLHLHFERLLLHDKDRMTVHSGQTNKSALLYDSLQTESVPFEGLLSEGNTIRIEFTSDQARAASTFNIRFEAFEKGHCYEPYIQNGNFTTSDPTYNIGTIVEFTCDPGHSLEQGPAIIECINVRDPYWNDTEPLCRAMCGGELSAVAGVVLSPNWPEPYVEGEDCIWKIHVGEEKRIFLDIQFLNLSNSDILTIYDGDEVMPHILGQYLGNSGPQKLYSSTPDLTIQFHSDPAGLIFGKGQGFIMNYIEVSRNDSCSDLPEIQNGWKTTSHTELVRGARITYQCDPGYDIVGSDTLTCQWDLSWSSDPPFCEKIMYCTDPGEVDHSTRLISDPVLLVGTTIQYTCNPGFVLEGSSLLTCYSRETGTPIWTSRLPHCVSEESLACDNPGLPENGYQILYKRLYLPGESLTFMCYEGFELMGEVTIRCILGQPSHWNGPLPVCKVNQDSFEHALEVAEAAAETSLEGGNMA

Binder	EC50 [1]	MFImax [1]	EC50 [2]	MFImax [2]	binding result (SEZ6L-Fc protein)
hSC200 (hSC17.200) (antibody, human IgG1, kappa, V domains shown, also called control molecule; control antibody) VH: EVQLVQSGAEVKKPGESLKISCKGSGYSFTSSWINWVRQMPGKGLEWMGRIYPGEGDTNYNGNFEGQVTISADKSISTAYLQWSSLKASDTAMYYCTRGLVMDYWGQGTLVTVSS VL: EIVLTQSPATLSLSPGERATLSCRASQSVDYNGISYMHWYQQKPGQAPRLLIYAASNVQSGIPARFSGSGSGTDFTLTISSLEPEDFAVYYCQQSIEDPPTFGGGTKVEIKR	0.21 nM	3940	0.66 nM	3300	–
PR3178 (antibody, human IgG1, kappa, V domains shown, Humanized, human IgG1, kappa; also called humanized antibody of cAb3009) VH: QVQLVQSGAEVKKPGASVKVSCKASGYTFTDYEMHWVRQAPGQGLEWMGGIDPESDNTVYNQKFKGRVTLTEDTSTSTAYMELRSLRSEDTAVYYCTRGDWYFDVWGQGTTVTVSS VL: DIVMTQSPDSLAVSLGERATINCKSSQSLLNSRTRENYLAWYQQKPGQPPKLLIYWASTRESGVPDRFSGSGSGTDFTLTISSLQAEDVAVYYCGQSYNLFTFGQGTKLEIKR	–	–	–	–	no binding (tested: 10 nM)
